Measured values published in paper PMC4720395, “Improvements in Glucose Sensitivity and Stability of Trichoderma reesei β-Glucosidase Using Site-Directed Mutagenesis” (PLoS ONE, 2016).

Assays:
[1] = target: T1, Cel1A (Bgl II) (Trichoderma reesei, UniProt O93785, L2V/L167W/P172L); assay: Dixon plot, pNPG hydrolysis, p-nitrophenol absorbance […] nm; type: biochemical; conditions: pNPG substrate (low concentrations), 100 mM acetate pH 5.5, 30°C; competitive; glucose also stimulates at higher pNPG; read-out: WT
T1 construct: gene bgl2; forward primer with NcoI site encodes N-terminus MVPKDFQW; GH1
T1 sequence (O93785 1-466 L2V/L167W/P172L): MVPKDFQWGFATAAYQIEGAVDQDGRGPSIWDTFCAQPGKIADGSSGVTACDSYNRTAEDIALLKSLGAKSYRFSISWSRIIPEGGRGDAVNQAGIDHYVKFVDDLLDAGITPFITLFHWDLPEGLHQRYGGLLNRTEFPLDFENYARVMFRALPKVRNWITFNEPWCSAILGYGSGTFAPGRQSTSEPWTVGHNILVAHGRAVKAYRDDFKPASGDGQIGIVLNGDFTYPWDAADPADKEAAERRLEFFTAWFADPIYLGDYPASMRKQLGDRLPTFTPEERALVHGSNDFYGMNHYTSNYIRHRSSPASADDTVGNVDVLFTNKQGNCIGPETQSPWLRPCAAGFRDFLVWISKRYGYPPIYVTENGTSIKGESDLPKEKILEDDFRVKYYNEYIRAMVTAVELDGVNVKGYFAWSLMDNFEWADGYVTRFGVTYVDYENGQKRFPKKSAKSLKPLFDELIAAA

[2] = target: T2, Cel1A (Bgl II) (Trichoderma reesei, UniProt O93785, L2V); assay: as above; type: biochemical; conditions: pNPG substrate (low concentrations), 100 mM acetate pH 5.5, 30°C; competitive; read-out: WT
T2 construct: gene bgl2; forward primer with NcoI site encodes N-terminus MVPKDFQW; GH1
T2 sequence (O93785 1-466 L2V): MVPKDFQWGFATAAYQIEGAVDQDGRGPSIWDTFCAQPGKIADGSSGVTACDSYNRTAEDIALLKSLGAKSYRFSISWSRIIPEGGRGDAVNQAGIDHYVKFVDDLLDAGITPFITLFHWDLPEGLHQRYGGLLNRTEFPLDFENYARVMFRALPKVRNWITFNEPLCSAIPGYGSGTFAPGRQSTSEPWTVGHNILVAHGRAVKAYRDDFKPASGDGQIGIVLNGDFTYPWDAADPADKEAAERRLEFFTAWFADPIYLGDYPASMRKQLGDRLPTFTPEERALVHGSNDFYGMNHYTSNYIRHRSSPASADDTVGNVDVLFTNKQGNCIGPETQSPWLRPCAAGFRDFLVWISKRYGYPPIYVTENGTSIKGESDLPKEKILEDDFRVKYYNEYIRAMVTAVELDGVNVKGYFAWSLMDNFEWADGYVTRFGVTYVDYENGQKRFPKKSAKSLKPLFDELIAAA

[3] = substrate: O=[N+]([O-])c1ccc(O[C@@H]2O[C@H](CO)[C@@H](O)[C@H](O)[C@H]2O)cc1; assay: purified protein; type: biochemical, Trichoderma reesei; conditions: 100 mM acetate pH 5.5, 30°C, no glucose
[4] = substrate inhibition above 0.25 mM pNPG

Question: `OC[C@H]1OC(O)[C@H](O)[C@@H](O)[C@@H]1O` (stereo partly drawn) [glucose] was tested. Which Ki [1] did it give?
Answer: 50 mM

Question: And the Ki [2]?
Answer: 50 mM

B1: Cel1A (Bgl II) (Trichoderma reesei; L167W/L2V/P172L) (protein)
chain: MVPKDFQWGFATAAYQIEGAVDQDGRGPSIWDTFCAQPGKIADGSSGVTACDSYNRTAEDIALLKSLGAKSYRFSISWSRIIPEGGRGDAVNQAGIDHYVKFVDDLLDAGITPFITLFHWDLPEGLHQRYGGLLNRTEFPLDFENYARVMFRALPKVRNWITFNEPWCSAILGYGSGTFAPGRQSTSEPWTVGHNILVAHGRAVKAYRDDFKPASGDGQIGIVLNGDFTYPWDAADPADKEAAERRLEFFTAWFADPIYLGDYPASMRKQLGDRLPTFTPEERALVHGSNDFYGMNHYTSNYIRHRSSPASADDTVGNVDVLFTNKQGNCIGPETQSPWLRPCAAGFRDFLVWISKRYGYPPIYVTENGTSIKGESDLPKEKILEDDFRVKYYNEYIRAMVTAVELDGVNVKGYFAWSLMDNFEWADGYVTRFGVTYVDYENGQKRFPKKSAKSLKPLFDELIAAA
notes: forward primer with NcoI site encodes N-terminus MVPKDFQW; GH1
Question: B1 was tested. Which Km [3, 4] did it give?
Answer: 230 ± 10 µM

Question: What about the Vmax [3, 4] of the same molecule?
Answer: 13.3 µmol/min/mg

B2: Cel1A (Bgl II) (Trichoderma reesei; L2V) (protein)
chain: MVPKDFQWGFATAAYQIEGAVDQDGRGPSIWDTFCAQPGKIADGSSGVTACDSYNRTAEDIALLKSLGAKSYRFSISWSRIIPEGGRGDAVNQAGIDHYVKFVDDLLDAGITPFITLFHWDLPEGLHQRYGGLLNRTEFPLDFENYARVMFRALPKVRNWITFNEPLCSAIPGYGSGTFAPGRQSTSEPWTVGHNILVAHGRAVKAYRDDFKPASGDGQIGIVLNGDFTYPWDAADPADKEAAERRLEFFTAWFADPIYLGDYPASMRKQLGDRLPTFTPEERALVHGSNDFYGMNHYTSNYIRHRSSPASADDTVGNVDVLFTNKQGNCIGPETQSPWLRPCAAGFRDFLVWISKRYGYPPIYVTENGTSIKGESDLPKEKILEDDFRVKYYNEYIRAMVTAVELDGVNVKGYFAWSLMDNFEWADGYVTRFGVTYVDYENGQKRFPKKSAKSLKPLFDELIAAA
notes: as for B1
Question: B2 was tested. Which Km [3] did it give?
Answer: 2480 ± 750 µM

Question: What about the Vmax [3] of the same molecule?
Answer: 7.7 µmol/min/mg
